Laboratory results published in patent US7091311 (GlaxoSmithKline, dated 2006).
*1 amine or outer side, *2 acyl side, *3 side chain or, on linkers, in order; H or OH if unused. Bridges are numbered along the chain shown (N, C = ends). Where no end group is shown, it is not given here. [ ]: non-standard residue; d: D form. Phe(4-NO2) = N[C@@H](Cc1ccc([N+](=O)[O-])cc1)C(=O)O; Phe(3,4-Cl2) = N[C@@H](Cc1ccc(Cl)c(Cl)c1)C(=O)O; DiPhAla = diphenylalanine (source's own name); Ser(Bzl) = O=C([C@H](COCc1ccccc1)N[*:1])[*:2]; Phe(4-Cl) = N[C@@H](Cc1ccc(Cl)cc1)C(=O)O; 1Nal = N[C@@H](Cc1cccc2ccccc12)C(=O)O; 2Nal = N[C@@H](Cc1ccc2ccccc2c1)C(=O)O; NMeF = CN[C@@H](Cc1ccccc1)C(=O)O; hPhe = N[C@@H](CCc1ccccc1)C(=O)O; 2Thi = N[C@@H](Cc1cccs1)C(=O)O; Cha = N[C@@H](CC1CCCCC1)C(=O)O; NMeL = CN[C@@H](CC(C)C)C(=O)O; Phg = N[C@H](C(=O)O)c1ccccc1; Tle = CC(C)(C)[C@H](N)C(=O)O; NMeV = CN[C@H](C(=O)O)C(C)C; NMeA = CN[C@@H](C)C(=O)O; Nle = CCCC[C@H](N)C(=O)O; Nva = CCC[C@H](N)C(=O)O; Abu = CC[C@H](N)C(=O)O; Aib = CC(C)(N)C(=O)O; Sar = CNCC(=O)O

T1: full length human TPO-R (human, UniProt P40238 26-635)
T1 sequence (looked up): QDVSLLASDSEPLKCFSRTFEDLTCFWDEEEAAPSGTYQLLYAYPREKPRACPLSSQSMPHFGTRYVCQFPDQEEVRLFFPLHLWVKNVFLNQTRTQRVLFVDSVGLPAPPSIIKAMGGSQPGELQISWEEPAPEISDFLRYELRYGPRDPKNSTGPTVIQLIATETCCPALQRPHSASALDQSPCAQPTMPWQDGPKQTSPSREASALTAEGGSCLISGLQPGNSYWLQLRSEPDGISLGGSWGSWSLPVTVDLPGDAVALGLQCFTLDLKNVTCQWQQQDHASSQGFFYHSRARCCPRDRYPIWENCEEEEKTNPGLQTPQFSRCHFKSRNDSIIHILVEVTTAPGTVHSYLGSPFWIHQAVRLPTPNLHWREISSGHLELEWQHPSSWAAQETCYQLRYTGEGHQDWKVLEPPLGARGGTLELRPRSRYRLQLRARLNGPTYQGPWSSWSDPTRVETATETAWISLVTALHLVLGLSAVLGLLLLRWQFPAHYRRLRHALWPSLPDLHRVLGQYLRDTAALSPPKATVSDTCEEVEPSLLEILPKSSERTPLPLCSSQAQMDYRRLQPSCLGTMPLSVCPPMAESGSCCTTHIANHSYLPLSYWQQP


molecular target: T1, full length human TPO-R; experiment: cell-based or functional assay

Q: For ADGPTLREWISFC (also: further groups not given here) [[drawing CHEM-US-00016] (SEQ ID NO:173)], which EC50 cell proliferation is on record?
A: The EC50 cell proliferation was ≤ 500 nM.

Q: And the EC50 microphysiometer?
A: Its EC50 microphysiometer is ≤ 200000 nM.

Q: What does the source list for EADGPTLREWISFK (also: further groups not given here) [[drawing CHEM-US-00015] (SEQ ID NO:182)]?
A: EC50 cell proliferation: ≤ 200000 nM; EC50 microphysiometer: ≤ 200000 nM

Q: Which results are given for ADGPTLREWISFE (also: further groups not given here) [[drawing CHEM-US-00018] (SEQ ID NO:183)]?
A: EC50 cell proliferation: ~200000 nM; EC50 microphysiometer: ~200000 nM

Q: For ADGPTLREWISFC (not fully specified; also: further groups not given here) [[drawing CHEM-US-00013] (SEQ ID NO:173)], which EC50 cell proliferation is on record?
A: The EC50 cell proliferation was ≤ 500 nM.

Q: And the EC50 microphysiometer?
A: The EC50 microphysiometer was ~200000 nM.

Q: For ADGPTLREWISFC (also: further groups not given here) [[drawing CHEM-US-00017] (SEQ ID NO:173)], which EC50 cell proliferation is on record?
A: The EC50 cell proliferation was ≤ 500 nM.

Q: What about the EC50 microphysiometer of the same binder?
A: Its EC50 microphysiometer is ~200000 nM.

Q: What does the source list for ADGPTLREWISFC (not fully specified; also: further groups not given here) [[drawing CHEM-US-00006] (SEQ ID NO:173)]?
A: EC50 cell proliferation: ≤ 200000 nM; EC50 microphysiometer: ~200000 nM

Q: How did the EC50 cell proliferation turn out when KADGPTLREWISFE (also: further groups not given here) [[drawing CHEM-US-00014] (SEQ ID NO:181)] was run?
A: Its EC50 cell proliferation is ≤ 200000 nM.

Q: What about the EC50 microphysiometer of the same binder?
A: The EC50 microphysiometer was ~200000 nM.

molecular target: T1, full length human TPO-R; experiment: cell-based or functional assay; remark: another data set of the same source

Q: CADGPTLREWIS[Ser(Bzl)]C (disulfide 1-14 (inferred); not fully specified) [SEQ ID NO:12 cyclized, F - (Ser(Bzl))] was tested. Which EC50 cell proliferation did it give?
A: Its EC50 cell proliferation is ≤ 500 nM.

Q: With CADGPTLREWIS[1Nal]C (disulfide 1-14 (inferred); not fully specified) [SEQ ID NO:12 cyclized, F - (1-Nal)] as the binder, how does the EC50 cell proliferation read?
A: The EC50 cell proliferation was ≤ 500 nM.

Q: Which EC50 cell proliferation does the source give for CADGPTLREWIS[hPhe]C (disulfide 1-14 (inferred); not fully specified) [SEQ ID NO:12 cyclized, F - Homo-Phe] here?
A: Its EC50 cell proliferation is ≤ 500 nM.

Q: What about the EC50 microphysiometer of the same binder?
A: The EC50 microphysiometer was ≤ 500 nM.

Q: With CADGPTLREWI[Abu]FC (disulfide 1-14 (inferred); not fully specified) [SEQ ID NO:12 cyclized, S - Abu] as the binder, how does the EC50 cell proliferation read?
A: The EC50 cell proliferation was ≤ 500 nM.

Q: Which EC50 cell proliferation does the source give for CADGPTLREWIS[Phe(3,4-Cl2)]C (disulfide 1-14 (inferred); not fully specified) [SEQ ID NO:12 cyclized, F - (3,4-di-Cl-Phe)] here?
A: The EC50 cell proliferation was ≤ 500 nM.

Q: And the EC50 microphysiometer?
A: Its EC50 microphysiometer is ≤ 200000 nM.

Q: How did the EC50 cell proliferation turn out when CADGPTLREWI[NMeV]FC (disulfide 1-14 (inferred); not fully specified) [SEQ ID NO:12 cyclized, S - (N-Me-Val)] was run?
A: The EC50 cell proliferation was ≤ 200000 nM.

Q: What does the source list for CADGPTLREWIS[2Nal]C (disulfide 1-14 (inferred); not fully specified) [SEQ ID NO:12 cyclized, F - (2-Nal)]?
A: EC50 cell proliferation: ≤ 500 nM; EC50 microphysiometer: ≤ 500 nM

Q: CADGPTLREWI[Tle]FC (disulfide 1-14 (inferred); not fully specified) [SEQ ID NO:12 cyclized, S - (t-Bu-Gly)] was tested. Which EC50 cell proliferation did it give?
A: The EC50 cell proliferation was ~200000 nM.

Q: Which results are given for CADGPTLREWI[Aib]FC (disulfide 1-14 (inferred); not fully specified) [SEQ ID NO:12 cyclized, S - Aib]?
A: EC50 cell proliferation: ≤ 500 nM; EC50 microphysiometer: ≤ 200000 nM

Q: For CADGPTLREWIS[NMeF]C (disulfide 1-14 (inferred); not fully specified) [SEQ ID NO:12 cyclized, F - (N-Me-Phe)], which EC50 cell proliferation is on record?
A: Its EC50 cell proliferation is ≤ 500 nM.

Q: For CADGPTLREWI[NMeL]FC (disulfide 1-14 (inferred); not fully specified) [SEQ ID NO:12 cyclized, S - (N-Me-Leu)], which EC50 cell proliferation is on record?
A: The EC50 cell proliferation was ≤ 200000 nM.

Q: For CADGPTLREWIS[Phe(4-Cl)]C (disulfide 1-14 (inferred); not fully specified) [SEQ ID NO:12 cyclized, F - (p-Cl-Phe)], which EC50 cell proliferation is on record?
A: Its EC50 cell proliferation is ≤ 500 nM.

Q: For CADGPTLREWI[NMeA]FC (disulfide 1-14 (inferred); not fully specified) [SEQ ID NO:12 cyclized, S - (N-Me-Ala)], which EC50 cell proliferation is on record?
A: The EC50 cell proliferation was ~200000 nM.

Q: Which EC50 cell proliferation does the source give for CADGPTLREWIS[Pyridylala]C (not fully specified (bridges); also: cyclized, type not given here) [SEQ ID NO:12 cyclized, F - (Pyridylala)] here?
A: The EC50 cell proliferation was ≤ 500 nM.

Q: Which EC50 cell proliferation does the source give for CADGPTLREWIS[2Thi]C (disulfide 1-14 (inferred); not fully specified) [SEQ ID NO:12 cyclized, F - Thi] here?
A: The EC50 cell proliferation was ≤ 500 nM.

Q: With CADGPTLREWIS[NMeA]C (disulfide 1-14 (inferred); not fully specified) [SEQ ID NO:12 cyclized, F - (N-Me-Ala)] as the binder, how does the EC50 cell proliferation read?
A: The EC50 cell proliferation was ~200000 nM.

Q: Which results are given for CADGPTLREWI[Nva]FC (disulfide 1-14 (inferred); not fully specified) [SEQ ID NO:12 cyclized, S - Nva]?
A: EC50 cell proliferation: ≤ 500 nM; EC50 microphysiometer: ≤ 500 nM

Q: Which EC50 cell proliferation does the source give for CADGPTLREWIS[Phg]C (disulfide 1-14 (inferred); not fully specified) [SEQ ID NO:12 cyclized, F - (Phenylgly)] here?
A: Its EC50 cell proliferation is ≤ 500 nM.

Q: What about the EC50 microphysiometer of the same binder?
A: The EC50 microphysiometer was ≤ 500 nM.

Q: For CADGPTLREWI[Nle]FC (disulfide 1-14 (inferred); not fully specified) [SEQ ID NO:12 cyclized, S - (Nor-Leu)], which EC50 cell proliferation is on record?
A: The EC50 cell proliferation was ≤ 500 nM.

Q: Which EC50 cell proliferation does the source give for CADGPTLREWIS[Cha]C (disulfide 1-14 (inferred); not fully specified) [SEQ ID NO:12 cyclized, F - CHA] here?
A: Its EC50 cell proliferation is ≤ 500 nM.

Q: What about the EC50 microphysiometer of the same binder?
A: Its EC50 microphysiometer is ≤ 500 nM.

Q: Which EC50 cell proliferation does the source give for CADGPTLREWI[Sar]FC (disulfide 1-14 (inferred); not fully specified) [SEQ ID NO:12 cyclized, S - Sar] here?
A: The EC50 cell proliferation was ~200000 nM.

Q: Which EC50 cell proliferation does the source give for CADGPTLREWIS[Phe(4-NO2)]C (disulfide 1-14 (inferred); not fully specified) [SEQ ID NO:12 cyclized, F - (p-Nitrophe)] here?
A: The EC50 cell proliferation was ≤ 500 nM.

Q: What about the EC50 microphysiometer of the same binder?
A: Its EC50 microphysiometer is ≤ 500 nM.

Q: How did the EC50 cell proliferation turn out when CADGPTLREWIS[DiPhAla]C (disulfide 1-14 (inferred); not fully specified) [SEQ ID NO:12 cyclized, F - (DiPh - Ala)] was run?
A: Its EC50 cell proliferation is ≤ 500 nM.

molecular target: T1, full length human TPO-R; experiment: cell-based or functional assay; remark: another data set of the same source

Q: For TLREWISFC (also: further groups not given here) [[drawing CHEM-US-00042] (SEQ ID NO:192)(SEQ ID NO:192)], which EC50 cell proliferation is on record?
A: The EC50 cell proliferation was ~200000 nM.

Q: What about the EC50 microphysiometer of the same binder?
A: The EC50 microphysiometer was ~200000 nM.

Q: For ADGPTLREWISFC (also: further groups not given here) [[drawing CHEM-US-00035] (SEQ ID NO:173)(SEQ ID NO:173)], which EC50 cell proliferation is on record?
A: Its EC50 cell proliferation is ≤ 500 nM.

Q: For ADGPTLREWISFC (also: further groups not given here) [[drawing CHEM-US-00036] (SEQ ID NO:173)(SEQ ID NO:173)], which EC50 cell proliferation is on record?
A: The EC50 cell proliferation was ≤ 500 nM.

Q: And the EC50 microphysiometer?
A: The EC50 microphysiometer was ≤ 500 nM.

Q: With ADGPTLREWISFC (also: further groups not given here) [[drawing CHEM-US-00027] / [drawing CHEM-US-00028] (SEQ ID NO:173)] as the binder, how does the EC50 cell proliferation read?
A: The EC50 cell proliferation was ≤ 500 nM.

Q: And the EC50 microphysiometer?
A: Its EC50 microphysiometer is ≤ 500 nM.

Q: For PTLREWISFC (not fully specified; also: further groups not given here) [[drawing CHEM-US-00041] (SEQ ID NO:191)(SEQ ID NO:191)], which EC50 cell proliferation is on record?
A: The EC50 cell proliferation was ≤ 500 nM.

Q: And the EC50 microphysiometer?
A: Its EC50 microphysiometer is ≤ 500 nM.

Q: With PTLREWISFC (not fully specified; also: further groups not given here) [[drawing CHEM-US-00040] (SEQ ID NO:191)(SEQ ID NO:191)] as the binder, how does the EC50 cell proliferation read?
A: The EC50 cell proliferation was ≤ 500 nM.

Q: Which EC50 cell proliferation does the source give for GPTLREWISFC (not fully specified; also: further groups not given here) [[drawing CHEM-US-00038] (SEQ ID NO:190)(SEQ ID NO:190)] here?
A: Its EC50 cell proliferation is ≤ 500 nM.

Q: For GPTLREWISFC (not fully specified; also: further groups not given here) [[drawing CHEM-US-00039] (SEQ ID NO:190)(SEQ ID NO:190)], which EC50 cell proliferation is on record?
A: The EC50 cell proliferation was ≤ 500 nM.

Q: And the EC50 microphysiometer?
A: The EC50 microphysiometer was ≤ 500 nM.

Q: How did the EC50 cell proliferation turn out when TLREWISFC (also: further groups not given here) [[drawing CHEM-US-00043] (SEQ ID NO:192)(SEQ ID NO:192)] was run?
A: The EC50 cell proliferation was ~200000 nM.

Q: And the EC50 microphysiometer?
A: Its EC50 microphysiometer is ≤ 500 nM.
